{"source": "patent US12553059B2", "about": "“Plant serine proteases” (priority 2018, dated 2026)", "key": {"[1]": {"test_system": "HIV-1 UG37 gp140", "experiment": "ELISA antigen binding of 2G12 (I19R 2G12 precomplexed with anti-Fc)", "settings": "2G12 (I19R variant) cleaved by apoplastic proteases", "experimental": "A slightly modified ELISA procedure was used for the analysis of 2G12 containing an I19R mutation in the heavy chain (I19R 2G12). Wells were coated with 500 ng HIV-1 UG37 gp140 in PBS. […] (Doores K J et al. J Virol 84 (2010):10690-10699) prior to appropriate dilution and addition to the wells. Detection of antigen-bound mAb molecules was performed with 0.1 μg/mL goat anti-human kappa chain peroxidase conjugate (SIGMA-ALDRICH, A7164)."}, "[2]": {"test_system": "monoclonal antibody 2F5", "experiment": "In vitro degradation assay with purified proteases, substrate 2F5", "type": "biochemical", "settings": "purified protease 10-100 μg/mL, pH 5.5", "experimental": "(§1) Leaves of Nicotiana benthamiana […] (Strasser R et al. Plant Biotechnol J 6 (2008):392-402) expressing a subtilisin-like serine protease construct were submerged in extraction buffer (50 mM sodium phosphate/200 mM KCl, pH 7.0) prior to vacuum exposure in a desiccator. Exogenous buffer was removed prior to centrifugation of the leaves for 15 min at 2000 g and 4° C. The recovered solution was then supplemented with 20 mM imidazole and loaded on a 1 mL column of Chelating Sepharose (GE […]) charged with Ni^2+ ions. After washing with the same buffer, the recombinant subtilisin-like serine protease was eluted with 250 mM imidazole in extraction buffer. Protein-containing eluate fractions were pooled, dialysed twice against 2 liters of extraction buffer and then concentrated by ultrafiltration using Microsep Advance centrifugal devices (10K MWCO; PALL CORPORATION).\n(§2) After incubation for up to 16 h, reactions were stopped by addition of SDS-PAGE sample buffer.\n(§3) For isolation of mAb degradation products, antibodies ([…]) were digested with apoplastic fluid or purified subtilisin-like serine proteases in 500 μL 100 mM sodium acetate (pH 5.5) to completion. After addition of 10 μL settled rProtein A Sepharose 4 Fast Flow beads, the samples were incubated for 2 h at 4° C. under constant agitation. The beads were then collected by centrifugation, washed four times with 500 μL PBS prior to elution of the bound antibody fragments with 100 μL 100 mM glycine (pH 3.0). The eluate was immediately neutralized with 10 μL 1 M Tris/HCl (pH 8.0). This elution/neutralization cycle was repeated four times. […]\n(§4) N-terminal sequence analysis of bands blotted on polyvinylidene difluoride membranes (BIO-RAD) was performed by Edman degradation (Niemer M et al. Biotechnol J 9 (2014):493-500). […] Eluted polypeptides were analysed online on a maxis 4G ETD Q-TOF mass spectrometer (BRUKER, Billerica, USA) equipped with an electrospray ionization source and operated in the positive ion mode (m/z range: 400-3800). […]"}, "[3]": {"test_system": "PG9", "experiment": "In vitro degradation assay with purified proteases, substrate PG9", "type": "biochemical", "settings": "for cleavage / degradation of PG9 by purified protease: purified protease 10-100 μg/mL, pH 5.5", "experimental": "as §1, §2, §3, §4"}, "[4]": {"test_system": "I19R 2G12", "experiment": "In vitro degradation assay with purified proteases, substrate I19R 2G12", "type": "biochemical", "settings": "for cleavage sites in I19R 2G12 heavy chain (arrows): N-terminal sequencing and mass spectrometry; for cleavage / degradation of I19R 2G12 by purified protease: purified protease 10-100 μg/mL, pH 5.5", "experimental": "as §1, §2\nFor isolation of mAb degradation products, antibodies ([…]) were digested with apoplastic fluid or purified subtilisin-like serine proteases in 500 μL 100 mM sodium acetate (pH 5.5) to completion. After addition of 10 μL settled rProtein A Sepharose 4 Fast Flow beads, the samples were incubated for 2 h at 4° C. under constant agitation. The beads were then collected by centrifugation, washed four times with 500 μL PBS prior to elution of the bound antibody fragments with 100 μL 100 mM glycine (pH 3.0). The eluate was immediately neutralized with 10 μL 1 M Tris/HCl (pH 8.0). This elution/neutralization cycle was repeated four times. All eluate fractions were combined and concentrated by ultrafiltration after buffer exchange into PBS containing 0.02% (v/v) NaN3.\nSamples were fractionated by 12.5% SDS-PAGE under reducing conditions and then blotted on nitrocellulose membranes (GE […]).\nas §4, with “(2014):493-500). Alternatively, antibodies or their degradation products were digested with PNGase F (ROCHE) to release their N-glycans, reduced with 10 mM DTE (1 h, 56° C.) and then fractionated on a THERMO PROSWIFT RP-4H column (250×0.20 mm) using a Dionex UltiMate 3000 HPLC system (THERMO […]).” for “(2014):493-500).”"}, "[5]": {"molecular_target": "SBT1 (SEQ ID No. 2)", "experiment": "Kinetic analysis of protease-inhibitor interactions, SBT1", "type": "biochemical, Nicotiana benthamiana", "settings": "recombinant inhibitor from E. coli; substrate Abz-VILDAVRA-Y(NO2)", "experimental": "(§5) These assays were performed as described (Hohl M et al., 2017, J. Biol. Chem. 292, 6389-6401). A fluorogenic peptide substrate, Abz-[…]-Y(NO2) (SEQ ID NO: 37), was used for measuring the enzymatic activity of the subtilisin-like serine proteases tested. Recombinant inhibitors (prepared as described in Hohl M et al., 2017, J. Biol. Chem. 292, 6389-6401) were added in serial dilutions. Substrate cleavage was monitored in an Infinite M200 Pro microplate reader as increase in relative fluorescence (λex=320 nm; λem=420 nm). Inhibition constants (Ki) were calculated using the Morrison equation."}, "[6]": {"molecular_target": "SBT2 (SEQ ID No. 14)", "experiment": "Kinetic analysis of protease-inhibitor interactions, SBT2", "type": "biochemical, Nicotiana benthamiana", "settings": "recombinant inhibitor from E. coli; substrate Abz-VILDAVRA-Y(NO2)", "experimental": "as §5"}}, "note": "Entries after “also recorded” stand apart in the source; their conditions may differ.", "data": [{"molecule": "2G12: neutralizing anti-HIV antibody, heavy chain SEQ ID No. 24, light chain SEQ ID No. 28", "values": [{"measurement": "antigen-binding activity of cleaved vs intact antibody (ELISA)", "setting": "[1]", "result": "severely reduced binding; also recorded: much lower antigen-binding activity"}]}, {"molecule": "trypsin [reference compound]", "values": [{"measurement": "cleavage / degradation of 2F5 by purified protease", "setting": "[2]", "result": "did not display cleavage activity; also recorded: cannot cleave"}]}, {"molecule": "SBT1: Nicotiana benthamiana subtilisin-like serine protease comprising SEQ ID No. 2 (protein, listed as Nicotiana benthamiana) MKGIISLFFCFSLFIVSFILREADSASQAQNNGIYIVYMGAAASSNGGTRHDQARLISSLIRRNKHAVVHSYNNGFSGFAARLSESEAKSMAQRPGVISVFPDPVLQLHTTHSWDFLKYQTDEKINSSPSSGSDSSLIGADTIIGILDTGIWPESESFNDKDMGPIPSRWNGTCMDGQDFGSSKCNKKIVGARFYEESDDSGTKIAGSARDENGHGTHVASTAAGSPVAGASYYGLAAGTATGGSPGSRISMYRVCTTFGCRGSAIMKAFDDAIADGVDVLSLSLGSSPGLEPDFPSNPIAIGAFHAVEKGITVVCSAGNSGPGPKTVVNTAPWILTVAATTIDRDFETDIVLGGNKLIKGGGINFGNMTKSSVYPLIHGNSTKSNDNVSEADARSCVPGSLDENKVKGKIVLCENLDDGEYFPSDKLDEVKSRGGVGFILIDDDERTVAPKFNSFSAGVVSKKDGNEILAYINSTRNPVASILPTVSITKYKPAPVVAYFSSRGPAYNTPNLLKPDITAPGVAILAAWPGNDTSEALPGQKPPIFNLLSGTSMSCPHVSGIAATVKAVNPTWSPSAVKSAIMTTAIQTNNLKAPITTVSGSKATPYDIGAGEASTSGPLKPGLVYETDVADYLQFLCSVGFNISQIKLISITVPEDFSCPKNSTSELVSNMNYPSIAISSLKENEPKKVTRTVTNTGEEASVYTTVIEAPKGLEVQVIPTKLEFTNKSKKLSYDVSFKASSTSKEDLFGSITWTNGKYKVRSPFVVSSN", "values": [{"measurement": "cleavage sites in PG9 heavy chain (arrows)", "setting": "[3]; N-terminal sequencing and mass spectrometry", "result": "DGYYNYHYM↓[…]"}, {"measurement": "cleavage / degradation of PG9 by purified protease", "setting": "[3]", "result": "degrade; also recorded: can cleave the heavy chains"}, {"measurement": "cleavage / degradation of 2F5 by purified protease", "setting": "[2]", "result": "degrade; also recorded: can cleave the heavy chains"}, {"measurement": "cleavage sites in I19R 2G12 heavy chain (arrows)", "setting": "[4]", "result": "↓TV and TV↓VT"}, {"measurement": "cleavage / degradation of I19R 2G12 by purified protease", "setting": "[4]", "result": "degrade; also recorded: can cleave the heavy chains"}]}, {"molecule": "SBT2: Nicotiana benthamiana subtilisin-like serine protease comprising SEQ ID No. 14 (protein, listed as Nicotiana benthamiana) MANHITLCIWLLFFFISIFSLAKSETYIIHMDLSAMPKAFSSHHNWYLTTLSSVSDSSTNHKDFLSSKLVYAYTNAIHGFSASLSPSELEAIKYSPGYVSSIKDISVKIDTTHTSQFLGLNSKSGVWPTSDYGKDIIIGLVDTGIWPESKSYSDDGISEVPSRWKGECESGTEFNSSLCNKKLIGARYFNKGLLANNPNLNISMNSSRDTDGHGTHTSSTAAGSYVEGASYFGYATGTAIGIAPKAHVAMYKALWEEGVYLSDVLAAIDQAITDGVDVLSLSLGIDAIPLHEDPVAIAAFAALEKGIFVSTSAGNEGPYYETLHNGTPWVLTVAAGTVDREFIGTLTLGNGVSVPGLSLYPGNSSSSESSLVYVECQDDKELQKNAHKFVVCLDKNDSVGEHVYNVRNSKVAGAVFITNTTDLEFYLQSEFPAVFLNLQEGDKVLEYIKSNSAPKGKLEFQVTHIGAKPAPKVATYSSRGPSPSCPSILKPDLMAPGALILASWPQQSPVTDVTSGKLFSNFNIISGTSMSCPHASGVAALLKAAHPEWSPAAIRSAMMTTSTALDNTQSPIRDIGNKNAAATPLAMGAGHIDPNKALDPGLIYDATPQDYVNLLCALNFTSKQIKTITRSSSYTCSNPSLDLNYPSFIGFFNGNSSESDPKRIQEFKRTVTNLQDGTSIYTANFTPMGKFKVSVVPEKLVFKEKYEKLSYKLRIEGPIVMDDNVVYGSLSWVETGGNYVVRSPIVATSIKVDPLTGHN", "values": [{"measurement": "cleavage / degradation of PG9 by purified protease", "setting": "[3]", "result": "capable of acting on; also recorded: can cleave the heavy chains"}, {"measurement": "cleavage sites in I19R 2G12 heavy chain (arrows)", "setting": "[4]", "result": "SD↓RL"}, {"measurement": "cleavage / degradation of I19R 2G12 by purified protease", "setting": "[4]", "result": "capable of acting on; also recorded: can cleave the heavy chains"}]}, {"molecule": "S11: S. lycopersicum subtilisin propeptide-like inhibitor, SEQ ID No. 33, recombinant from E. coli (protein, Protease inhibitor) MMKKDQILSSILLFFFLFTAFITTMADSQASSQPSNESKVHIVYTEQPKDQEPEEYHIKTLTSVLGSEEAAKEALLYSYKHAASGFSAKLTAEQVSELSKLPGVLQVVPSQTVQLHTGRV", "values": [{"measurement": "binding affinity to / inhibition of SBT1", "setting": "[5]", "result": "high affinities"}, {"measurement": "binding affinity to / inhibition of SBT2", "setting": "[6]", "result": "high affinities"}]}, {"molecule": "SBT3: other serine protease (Cedzich A et al. 2009) (protein, UniProt O82777 113-761, looked up) Subtilisin-like protease SBT3: TTHTSDFLKLNPSSGLWPASGLGQDVIVAVLDSGIWPESASFQDDGMPEIPKRWKGICKPGTQFNASMCNRKLIGANYFNKGILANDPTVNITMNSARDTDGHGTHCASITAGNFAKGVSHFGYAPGTARGVAPRARLAVYKFSFNEGTFTSDLIAAMDQAVADGVDMISISYGYRFIPLYEDAISIASFGAMMKGVLVSASAGNRGPGIGSLNNGSPWILCVASGHTDRTFAGTLTLGNGLKIRGWSLFPARAFVRDSPVIYNKTLSDCSSEELLSQVENPENTIVICDDNGDFSDQMRIITRARLKAAIFISEDPGVFRSATFPNPGVVVNKKEGKQVINYVKNSVTPTATITFQETYLDTKPAPVVAASSARGPSRSYLGISKPDILAPGVLILAAYPPNVFATSIGTNILLSTDYILESGTSMAAPHAAGIAAMLKAAHPEWSPSAIRSAMMTTADPLDNTRKPIKDSDNNKAATPLDMGAGHVDPNRALDPGLVYDATPQDYVNLLCSLNFTEEQFKTIARSSASHNCSNPSADLNYPSFIALYSIEGNFTLLEQKFKRTVTNVGKGAATYKAKLKAPKNSTISVSPQILVFKNKNEKQSYTLTIRYIGDEGQSRNVGSITWVEQNGNHSVRSPIVTSPIIEVW", "values": [{"measurement": "cleavage / degradation of 2F5 by purified protease", "setting": "[2]", "result": "did not display cleavage activity; also recorded: cannot cleave"}]}]}
